# Test results as given in patent CN106188281A (INST PASTEUR OF SHANGHAI CHINESE ACAD OF SCIENCES, dated 2016).
# T1: 诺如病毒GI.1病毒样颗粒 (GI.1 VP1 virus-like particle) (诺如病毒GI.1 (norovirus GI.1), UniProt Q83884 3-530)
# T1 construct: VLP assembled from VP1
# T1 sequence: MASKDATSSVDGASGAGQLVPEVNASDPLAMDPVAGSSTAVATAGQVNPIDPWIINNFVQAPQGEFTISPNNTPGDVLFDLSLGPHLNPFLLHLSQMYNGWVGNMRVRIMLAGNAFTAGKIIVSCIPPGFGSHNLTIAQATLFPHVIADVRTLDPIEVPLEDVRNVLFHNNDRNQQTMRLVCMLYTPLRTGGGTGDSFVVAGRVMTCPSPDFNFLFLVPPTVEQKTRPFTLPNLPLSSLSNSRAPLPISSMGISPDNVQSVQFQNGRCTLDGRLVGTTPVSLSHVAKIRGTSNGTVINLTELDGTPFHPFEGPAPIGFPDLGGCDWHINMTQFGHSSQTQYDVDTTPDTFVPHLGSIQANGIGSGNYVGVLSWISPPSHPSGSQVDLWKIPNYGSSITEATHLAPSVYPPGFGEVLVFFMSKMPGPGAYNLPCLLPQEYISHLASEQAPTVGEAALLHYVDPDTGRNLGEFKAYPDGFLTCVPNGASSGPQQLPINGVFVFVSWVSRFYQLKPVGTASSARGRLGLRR
# T2: 诺如病毒GII.4病毒样颗粒 (GII.4 VP1 virus-like particle) (诺如病毒GII.4 (norovirus GII.4), UniProt P54635 3-539)
# T2 construct: also called GII.4VLP; 天然结构的GII.4病毒样颗粒
# T2 chain: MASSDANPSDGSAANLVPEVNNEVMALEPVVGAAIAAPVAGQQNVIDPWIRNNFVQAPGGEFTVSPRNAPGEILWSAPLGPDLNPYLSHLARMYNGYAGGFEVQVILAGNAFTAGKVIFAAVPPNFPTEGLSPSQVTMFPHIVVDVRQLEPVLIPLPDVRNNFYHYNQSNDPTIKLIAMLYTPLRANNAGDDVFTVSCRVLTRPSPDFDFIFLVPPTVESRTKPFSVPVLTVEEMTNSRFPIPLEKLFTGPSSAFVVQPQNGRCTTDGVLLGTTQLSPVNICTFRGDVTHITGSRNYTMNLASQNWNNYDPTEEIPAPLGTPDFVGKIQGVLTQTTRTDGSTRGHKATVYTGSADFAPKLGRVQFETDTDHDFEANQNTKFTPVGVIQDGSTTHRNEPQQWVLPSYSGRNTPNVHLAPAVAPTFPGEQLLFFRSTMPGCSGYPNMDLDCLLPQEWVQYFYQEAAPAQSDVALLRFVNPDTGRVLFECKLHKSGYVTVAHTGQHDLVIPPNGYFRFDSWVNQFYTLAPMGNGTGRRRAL
# B1: 8E1单抗 (抗诺如病毒GII.4型鼠源单克隆抗体8E1) (antibody, V domains shown)
# VH: EIQLQQSGPELMKPGASVKISCKASGYSFTDYYMHWVKQSHGKSLEWIGYIDPFNGDTGYNQKFKVRATLTVDESSTTAYMHLSSLTSDDSAVYYCARDDWGSPFSYWGQGTLVTVSA
# VL: DIQMTQSPSSLSASLGESVSLTCRASHDIGSNLDWLQQEPDGTIKRLIYATSTLDSGVPKRFSGSRSGSDYSLTISSLESEDFVEYYCLQYASSPRTFGGGTKLEIKR
# notes: Mouse IgG1, kappa; also called m8E1
# Columns and labels:
# [1] = molecular target: T1, 诺如病毒GI.1病毒样颗粒 (GI.1 VP1 virus-like …); experiment: ELISA, 100 ng GI.1 VLP coated per well
# [2] = molecular target: T2, 诺如病毒GII.4病毒样颗粒 (GII.4 VP1 virus-like …); experiment: blocking ELISA (surrogate neutralisation): mAb titrated against 0.5 ug/ml GII.4 VLP, binding of VLP to coated PGM read
# [3] = molecular target: T2, 诺如病毒GII.4病毒样颗粒 (GII.4 VP1 virus-like …); experiment: blocking ELISA (surrogate neutralisation), VLP to PGM; reference D11
# [4] = molecular target: T2, 诺如病毒GII.4病毒样颗粒 (GII.4 VP1 virus-like …); experiment: blocking ELISA (surrogate neutralisation), VLP to PGM; reference G9
binder,measurement,setting,value
B1,binding result,[1],no binding (tested: 5ug/ml)
same,EC50,[2],0.0436 µg/mL
same,fold of neutralising (blocking) activity against D11,[3],> 2 fold
same,fold of neutralising (blocking) activity against G9,[4],~16 fold
